Data on one molecule can be found in patent US20260034234A1 (AGENSYS, published 2026).

In the experiment the target is T1, 191P4D12 (aa 1-31, 147-346), mFc-C1C2, fusion protein (human, UniProt Q96NY8 1-346).
T1 construct: Expressed in 293T cells and purified; also called C1C2 fusion construct; not shown: murine Fc
T1 sequence: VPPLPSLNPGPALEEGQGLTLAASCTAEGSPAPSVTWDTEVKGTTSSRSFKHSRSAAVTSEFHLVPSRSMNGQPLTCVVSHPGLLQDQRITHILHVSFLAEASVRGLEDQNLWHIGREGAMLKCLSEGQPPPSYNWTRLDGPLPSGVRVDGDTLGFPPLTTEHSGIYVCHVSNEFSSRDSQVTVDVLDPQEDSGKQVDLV
The experiment in a line: Western blot of purified mFc fusion proteins (non-reduced SDS-PAGE), probed with Ha22-2(2,4)6.1-biotin and streptavidin-HRP. Here is the method: To further corroborate the results set forth in FIG. 10, a Western Blot analysis was performed. Briefly, the entire extracellular portion of 191P4D12 (full length), as well as specific domains set forth in Table VI were expressed in 293T cells as murine Fc fusion proteins and purified. Goat anti-mouse-HRP were used as a control.
(In general: In western blotting, separated proteins are transferred to a membrane and probed.)

B1: Ha22-2(2,4)6.1 MAb (antibody, human IgG1, kappa, V domains shown)
VH: EVQLVESGGGLVQPGGSLRLSCAASGFTFSSYNMNWVRQAPGKGLEWVSYISSSSSTIYYADSVKGRFTISRDNAKNSLSLQMNSLRDEDTAVYYCARAYYYGMDVWGQGTTVTVSS
VL: DIQMTQSPSSVSASVGDRVTITCRASQGISGWLAWYQQKPGKAPKFLIYAASTLQSGVPSRFSGSGSGTDFTLTISSLQPEDFATYYCQQANSFPPTFGGGTKVEIKR
notes: Fully human IgG1 kappa from XenoMouse; Used biotinylated in the Western blot; also called 191P4D12 MAb Ha22-2(2,4)6.1; Ha22-(2,4)6.1 MAb
With B1, the binding result is on record as “no binding”.
